As usually defined, the Kd is the equilibrium constant for the complex coming apart. Low readings indicate a tighter complex, high ones a looser complex.

Several values for one entry are separate records, joined by “and”; a condition that tells them apart may be missing. Equal entries are not always repeated.

Assay in all cases: SPR, kinetics, Fab over captured mutant
For orientation: In SPR one partner is held on a chip, and binding of the other changes the refractive index at the surface.

In test [1] the target is T1, shCD131 T106A (human, UniProt P32927 17-438).
T1 construct: C-terminal 6xHis
T1 sequence: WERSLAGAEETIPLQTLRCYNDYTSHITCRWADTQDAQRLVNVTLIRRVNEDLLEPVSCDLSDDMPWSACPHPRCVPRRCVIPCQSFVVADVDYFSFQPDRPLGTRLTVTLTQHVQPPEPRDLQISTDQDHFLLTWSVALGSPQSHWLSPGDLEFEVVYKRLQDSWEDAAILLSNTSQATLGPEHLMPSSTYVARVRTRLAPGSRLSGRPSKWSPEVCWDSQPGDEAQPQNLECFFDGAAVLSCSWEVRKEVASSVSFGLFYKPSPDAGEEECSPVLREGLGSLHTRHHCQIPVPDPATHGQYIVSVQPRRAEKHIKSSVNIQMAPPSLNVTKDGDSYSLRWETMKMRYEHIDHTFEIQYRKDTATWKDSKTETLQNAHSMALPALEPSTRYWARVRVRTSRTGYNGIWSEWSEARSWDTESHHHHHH

Test [2] addresses T2, shCD131 N422A (human, UniProt P32927 17-438).
T2 construct: C-terminal 6xHis
T2 sequence: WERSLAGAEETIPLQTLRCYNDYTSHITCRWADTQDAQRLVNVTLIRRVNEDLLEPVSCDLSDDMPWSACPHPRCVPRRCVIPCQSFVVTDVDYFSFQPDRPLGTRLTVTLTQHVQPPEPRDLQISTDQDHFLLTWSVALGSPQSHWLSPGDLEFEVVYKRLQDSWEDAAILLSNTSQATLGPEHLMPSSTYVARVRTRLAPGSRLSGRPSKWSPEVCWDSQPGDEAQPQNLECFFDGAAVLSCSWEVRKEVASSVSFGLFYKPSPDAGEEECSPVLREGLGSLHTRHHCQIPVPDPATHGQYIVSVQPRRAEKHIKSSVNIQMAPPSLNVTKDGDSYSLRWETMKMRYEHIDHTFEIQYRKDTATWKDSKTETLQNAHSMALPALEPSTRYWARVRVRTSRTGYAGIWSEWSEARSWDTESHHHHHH

Test [3] has as its target T3, shCD131 D107A (human, UniProt P32927 17-438).
T3 construct: C-terminal 6xHis
T3 sequence: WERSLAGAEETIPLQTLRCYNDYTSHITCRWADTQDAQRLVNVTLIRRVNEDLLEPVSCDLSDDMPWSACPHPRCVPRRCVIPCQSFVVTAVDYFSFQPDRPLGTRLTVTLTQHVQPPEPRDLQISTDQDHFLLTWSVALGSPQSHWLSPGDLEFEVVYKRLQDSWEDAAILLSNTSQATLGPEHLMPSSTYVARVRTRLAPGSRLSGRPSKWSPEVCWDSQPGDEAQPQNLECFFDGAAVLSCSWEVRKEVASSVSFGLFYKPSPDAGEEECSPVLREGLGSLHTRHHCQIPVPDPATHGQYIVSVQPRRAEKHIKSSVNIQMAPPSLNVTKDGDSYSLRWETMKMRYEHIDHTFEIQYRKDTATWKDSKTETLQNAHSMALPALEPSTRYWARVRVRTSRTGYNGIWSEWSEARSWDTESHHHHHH

Test [4] addresses T4, shCD131 K362A (human, UniProt P32927 17-438).
T4 construct: C-terminal 6xHis
T4 sequence: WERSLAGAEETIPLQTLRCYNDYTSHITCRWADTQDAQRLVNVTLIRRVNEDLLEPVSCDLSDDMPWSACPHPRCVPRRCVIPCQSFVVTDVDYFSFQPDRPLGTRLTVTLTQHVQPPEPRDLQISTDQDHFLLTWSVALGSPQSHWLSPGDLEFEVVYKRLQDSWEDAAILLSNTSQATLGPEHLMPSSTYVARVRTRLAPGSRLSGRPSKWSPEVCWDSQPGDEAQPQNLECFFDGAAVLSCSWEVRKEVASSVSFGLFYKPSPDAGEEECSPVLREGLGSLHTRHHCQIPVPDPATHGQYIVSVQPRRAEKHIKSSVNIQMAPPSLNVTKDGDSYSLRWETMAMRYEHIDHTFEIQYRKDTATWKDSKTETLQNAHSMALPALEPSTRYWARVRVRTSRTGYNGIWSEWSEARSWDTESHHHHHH

B1: 9A2 Fab (Fab, V domains shown)
VH: EVQLLESGGGLVQPGGSLRLSCAASGFTFSHYHMLWVRQAPGKGLEWVSSIRSSGGFTYYADSVKGRFTISRDNSKNTLYLQMNSLRAEDTAVYYCARFYDSFFDIWGQGTMVTVSS
VL: DIQMTQSPSSVSASVGDRVTITCRASQGISSWLAWYQQKPGKAPKLLIYAASSLQSGVPSRFSGSGSGTDFTLTISSLQPEDFATYYCQQANSFPITFGQGTRLEIKR
notes: also called recombinant Fab of 9A2
B1: the Kd is 5.8 nM in test [1]; 54 nM in test [2]; 191 nM in test [3]; 64.8 nM and 65 nM in test [4].
